Key:
human TNFα = biological target: T1, human TNFα (human, UniProt P01375 77-233); test: EIA, recombinant protein coated at 1 µg/mL
T1 construct: Coated as recombinant protein in the EIA
Procedure: (§1) Enzyme immunoassays (EIAs) were used to test hybridoma cell supernatants for the presence of murine anti-LTα Mabs. Briefly, plates were coated with rhuLTα at 10 μg/mL in PBS overnight. After washing in 0.15 M saline containing 0.02% (v/v) Tween 20, the wells were blocked with 1% (w/v) BSA in PBS for 1 hour at RT. Undiluted hybridoma supernatants were incubated on the plates for one hour at 37° C. The plates were washed and probed with HRP-conjugated goat anti-mouse IgG Fc specific antibody for one hour at 37° C. The plates were again washed and citrate-phosphate substrate solution (0.1 M citric acid and 0.2 M sodium phosphate, 0.01% H₂O₂ and 1 mg/mL OPD) was added for 15 minutes at RT. Stop solution (4N sulfuric acid) was then added and the OD's were read at 490 nm using an automated plate spectrophotometer. The anti-human LTα Mabs were assessed for their ability to cross-react with murine LTα or human TNFα. The recombinant proteins were coated on EIA plates at 1 μg/mL in the same manner described above. Purified Mabs were incubated on the plates in serial dilutions starting at […] for 1 hour at 37° C. The plates were washed, probed and processed as above. […] Eight different hybridoma clones that secrete a murine IgG1 κ Mab specifically binds to rhuLTα.

murine LTα = biological target: T2, murine LTα (murine, UniProt P09225 34-202, limits assumed); test: EIA, recombinant protein coated at 1 µg/mL
T2 construct: Coated as recombinant protein in the EIA; used as 'murine LTα lysates' in the WEHI assay; also called murine LTα lysates
T2 sequence (looked up): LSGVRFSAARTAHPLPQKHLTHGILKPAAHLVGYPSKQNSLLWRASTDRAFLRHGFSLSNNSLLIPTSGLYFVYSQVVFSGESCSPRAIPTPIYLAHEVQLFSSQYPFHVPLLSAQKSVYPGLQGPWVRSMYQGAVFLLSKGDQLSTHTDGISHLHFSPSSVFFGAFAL
Procedure: as §1

[1] = biological target: T3, recombinant human lymphotoxin alpha (rhuLTα) (human, UniProt P01374 35-205); test: SPR; Mab captured on immobilized anti-murine Fc antibody, rhuLTα in solution
T3 construct: also called human LTα; Soluble LTα
T3 sequence (looked up): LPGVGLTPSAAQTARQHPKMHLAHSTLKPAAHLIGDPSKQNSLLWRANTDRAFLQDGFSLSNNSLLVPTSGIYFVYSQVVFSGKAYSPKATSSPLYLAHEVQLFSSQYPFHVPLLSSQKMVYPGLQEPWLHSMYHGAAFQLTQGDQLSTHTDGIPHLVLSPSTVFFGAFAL
Procedure: The affinity of anti-human LTα Mabs for rhuLTα was determined using surface plasmon resonance technology. The murine Mabs were first captured on chips that contained immobilized polyclonal anti-murine Fc antibody. Buffer containing rhuLTα was then passed over the captured Mab molecules and the resulting change in the mass bound over time was recorded.

[2] = biological target: T3, recombinant human lymphotoxin alpha …; test: cell-based or functional assay

T1 sequence (P01375 77-233 limits assumed): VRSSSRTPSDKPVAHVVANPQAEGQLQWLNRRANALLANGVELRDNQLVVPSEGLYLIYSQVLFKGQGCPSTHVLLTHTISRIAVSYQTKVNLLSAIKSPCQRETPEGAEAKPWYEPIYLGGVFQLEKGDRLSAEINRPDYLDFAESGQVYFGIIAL

B1: murine anti-human LTα Mab 4 (antibody, V domains shown)
VH: PGLVAPAQSLSITCTVSGFSLTSYGVHWVRQPPGKGLEWLGVIWAGGNTNYNSPLMSRLRIIKDNSKSQVFLKMNSLQADDTAMYYCVSHDVNNPFGYWGQGTLVTVSA
VL: DIQMTQTTSSLSASLGDRVTISCRASQDITNYLNWYQQKPDGTVKLLIYYTSRLHSGVPSRFSGSGSGTDYSLTISNLEQEDIATYFCQQGNTLPYTFGGGTRLEIK
notes: Tested as the murine IgG1 kappa hybridoma Mab; also called Mab number 4
Q: Does B1 bind (human TNFα)?
A: no binding (tested: serial dilutions starting at 25 µg/nL)

Q: Does B1 bind (murine LTα)?
A: no binding (tested: serial dilutions starting at 25 µg/nL)

Q: What about the Kd [1] of the same binder?
A: 1.1 nM

Q: What about the “IC50, inhibition of LTα-mediated WEHI 164 cell cytotoxicity, rhuLTα at 10 ng/mL” value [2] of the same binder?
A: 6.2 µg/mL

Q: And the “IC50, inhibition of WEHI 164 cell cytotoxicity, rhuLTα at 0.1 ng/mL” value [2]?
A: 0.54 µg/mL

Q: What about the “normalized molar ratio of Mab to rhuLTα at the IC50 value, rhuLTα at 0.1 ng/mL” value [2] of the same binder?
A: 1800 molar ratio Mab:rhuLTα

Source: patent publication US20050266004A1 (published 2005)
